# Data from patent US20080058263A1 (published 2008).
# T1: VEGFR-3-Fc (UniProt P35916 25-328)
# T1 construct: domain: first three Ig domains; conditioned supernatant of 293T cells; also called VEGFR-3-Fc fusion protein; not shown: Fc fragment of the pIg vector
# T1 sequence (looked up): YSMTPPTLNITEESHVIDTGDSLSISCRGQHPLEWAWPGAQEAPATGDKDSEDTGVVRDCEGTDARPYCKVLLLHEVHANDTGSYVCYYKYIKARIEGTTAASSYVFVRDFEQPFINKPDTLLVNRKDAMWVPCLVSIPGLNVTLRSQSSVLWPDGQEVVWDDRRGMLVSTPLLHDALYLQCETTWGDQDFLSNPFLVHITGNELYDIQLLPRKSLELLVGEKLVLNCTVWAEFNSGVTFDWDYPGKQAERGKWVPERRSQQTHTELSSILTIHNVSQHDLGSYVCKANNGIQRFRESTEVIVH
# Assays:
# Assay in all cases: receptor-Fc IP
# [1] = target: T1, VEGFR-3-Fc
# Outline: (§1)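 fusion protein at 400 ng/ml in an IP mix (PBS, 1.5% BSA, 0.06% Tween 20, 3 μg/ml heparin) was combined with sample supernatant at a 1:2 ratio. Bound ligand captured by immunoprecipitation with pentahistidine antibody.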
# [2] = target: T2, VEGFR-1-Fc (UniProt P17948 27-338)
# T2 construct: domain: first three Ig domains; expressed in Drosophila S2 cells, purified on Protein A sepharose; also called VEGFR-1-Fc fusion protein; not shown: Fc fragment from the Signal-pIgPlus vector
# Outline: as §1
# [3] = target: T3, VEGFR-2-Fc (UniProt P35968 20-322)
# T3 construct: domain: first 3 Ig domains; conditioned supernatant of 293T cells; also called VEGFR-2-Fc fusion protein; not shown: Fc fragment of the pIg vector
# Outline: as §1
# T3 sequence (P35968 20-322): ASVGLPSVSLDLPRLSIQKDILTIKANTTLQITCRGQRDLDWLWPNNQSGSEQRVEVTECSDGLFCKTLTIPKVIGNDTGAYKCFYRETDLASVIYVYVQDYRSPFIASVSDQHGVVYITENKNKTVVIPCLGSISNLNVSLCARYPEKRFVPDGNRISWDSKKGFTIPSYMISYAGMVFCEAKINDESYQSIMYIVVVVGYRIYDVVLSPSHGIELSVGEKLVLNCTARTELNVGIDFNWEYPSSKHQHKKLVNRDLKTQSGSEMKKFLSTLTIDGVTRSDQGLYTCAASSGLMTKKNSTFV
# T2 sequence (P17948 27-338): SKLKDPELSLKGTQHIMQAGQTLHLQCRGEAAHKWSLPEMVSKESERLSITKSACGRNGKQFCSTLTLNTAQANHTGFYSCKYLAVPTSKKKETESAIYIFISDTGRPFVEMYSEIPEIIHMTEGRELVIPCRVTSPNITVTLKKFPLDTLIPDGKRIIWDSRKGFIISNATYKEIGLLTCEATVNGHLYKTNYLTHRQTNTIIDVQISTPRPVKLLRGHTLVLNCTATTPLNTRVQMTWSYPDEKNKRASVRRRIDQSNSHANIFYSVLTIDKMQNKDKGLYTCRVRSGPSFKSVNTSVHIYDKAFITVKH
Binder,binding result [1],binding result [2],binding result [3]
23-3 (ligand) AHYNTEILKSIDNEWRKTQCMPREVCIDVGKEYPDEIEYIFKPPCVSVYRCGGCCNSEGLQCVPTEESNITMQIMRIKPHQGQHIGEMSFLQHNKCECRPKKD,no binding,no binding,no binding
21-1 (ligand) AHYNTEILKSIDNEWRKTQCMPREVCIDVGKEYPDEIEYIFKPSCVPLMRCGGCCNDEGLECVPTEESNITMQIMRIKPHQGQHIGEMSFLQHNKCECRPKKD,no binding,no binding,no binding
23-7 (ligand) AHYNTEILKSIDNEWRKTQCMPREVCIDVGKEYPDEIEYIFKPPCVSVYRCGGCCNSEGLQCVPTEESNITMQIMRIKPHQGQHIGEMSFANHTSCRCMSKLD,no binding,no binding,no binding
33-14 (ligand) GQNHHEVVKSIDNEWRKTQCMPIETLVDIFQEYPDEIEYIFKPPCVSVYRCGGCCNDEGLECMNTSTSYLSKTLFEITVPLSQGPKPVTISFANHTSCRCMSKLD,no binding,no binding,no binding
33-16 (ligand) GQNHHEVVKSIDNEWRKTQCMPIETLVDIFQEYPDEIEYIFKPPCVSVYRCGGCCNSEGLQCMNTSTSYLSKTLFEITVPLSQGPKPVTISFANHTSCRCMSKLD,no binding,no binding,no binding
41-6 (ligand) AHYNTEILKFMDVYQRSYCHPREVCIDVGKEYPDEIEYIFKPSCVPLMRCGGCCNDEGLECMNTSTSYLSKTLFEIKPHQGQHIGEMSFANHTSCRCMSKLD,no binding,no binding,no binding
31-4 (ligand) GQNHHEVVKSIDNEWRKTQCMPIETLVDIFQEYPDEIEYIFKPSCVPLMRCGGCCNDEGLECVPTEESNITMQIMRITVPLSQGPKPVTISFANHTSCRCMSKLD,no binding,no binding,no binding
34-15 (ligand) GQNHHEVVKSIDNEWRKTQCMPIETLVDIFQEFGVATNTFFKPSCVPLMRCGGCCNSEGLQCVPTEESNITMQIMRITVPLSQGPKPVTISFANHTSCRCMSKLD,no binding,no binding,no binding
34-13 (ligand) GQNHHEVVKSIDNEWRKTQCMPIETLVDIFQEFGVATNTFFKPSCVPLMRCGGCCNDEGLECVPTEESNITMQIMRITVPLSQGPKPVTISFANHTSCRCMSKLD,no binding,no binding,no binding
33-15 (ligand) GQNHHEVVKSIDNEWRKTQCMPIETLVDIFQEYPDEIEYIFKPPCVSVYRCGGCCNSEGLQCVPTEESNITMQIMRITVPLSQGPKPVTISFANHTSCRCMSKLD,no binding,no binding,no binding
33-13 (ligand) GQNHHEVVKSIDNEWRKTQCMPIETLVDIFQEYPDEIEYIFKPPCVSVYRCGGCCNDEGLECVPTEESNITMQIMRITVPLSQGPKPVTISFANHTSCRCMSKLD,no binding,no binding,no binding
34-14 (ligand) GQNHHEVVKSIDNEWRKTQCMPIETLVDIFQEFGVATNTFFKPSCVPLMRCGGCCNDEGLECMNTSTSYLSKTLFEITVPLSQGPKPVTISFANHTSCRCMSKLD,no binding,no binding,no binding
33-2 (ligand) GQNHHEVVKSIDNEWRKTQCMPIETLVDIFQEYPDEIEYIFKPPCVSVYRCGGCCNDEGLECMNTSTSYLSKTLFEIKPHQGQHIGEMSFLQHNKCECRPKKD,no binding,no binding,no binding

# Next, values leading:
binding result [1],binding result [2],binding result [3],Binder
no binding,no binding,no binding,33-6 (ligand) GQNHHEVVKSIDNEWRKTQCMPIETLVDIFQEYPDEIEYIFKPPCVSVYRCGGCCNDEGLECMNTSTSYLSKTLFEIKPHQGQHIGEMSFANHTSCRCMSKLD
no binding,no binding,no binding,33-8 (ligand) GQNHHEVVKSIDNEWRKTQCMPIETLVDIFQEYPDEIEYIFKPPCVSVYRCGGCCNSEGLQCMNTSTSYLSKTLFEIKPHQGQHIGEMSFANHTSCRCMSKLD
no binding,no binding,no binding,33-4 (ligand) GQNHHEVVKSIDNEWRKTQCMPIETLVDIFQEYPDEIEYIFKPPCVSVYRCGGCCNSEGLQCMNTSTSYLSKTLFEIKPHQGQHIGEMSFLQHNKCECRPKKD
no binding,no binding,no binding,33-5 (ligand) GQNHHEVVKSIDNEWRKTQCMPIETLVDIFQEYPDEIEYIFKPPCVSVYRCGGCCNDEGLECVPTEESNITMQIMRIKPHQGQHIGEMSFANHTSCRCMSKLD
no binding,no binding,no binding,33-7 (ligand) GQNHHEVVKSIDNEWRKTQCMPIETLVDIFQEYPDEIEYIFKPPCVSVYRCGGCCNSEGLQCVPTEESNITMQIMRIKPHQGQHIGEMSFANHTSCRCMSKLD
no binding,no binding,no binding,34-1 (ligand) GQNHHEVVKSIDNEWRKTQCMPIETLVDIFQEFGVATNTFFKPSCVPLMRCGGCCNDEGLECVPTEESNITMQIMRIKPHQGQHIGEMSFLQHNKCECRPKKD
no binding,no binding,no binding,34-3 (ligand) GQNHHEVVKSIDNEWRKTQCMPIETLVDIFQEFGVATNTFFKPSCVPLMRCGGCCNSEGLQCVPTEESNITMQIMRIKPHQGQHIGEMSFLQHNKCECRPKKD
no binding,no binding,no binding,34-5 (ligand) GQNHHEVVKSIDNEWRKTQCMPIETLVDIFQEFGVATNTFFKPSCVPLMRCGGCCNDEGLECVPTEESNITMQIMRIKPHQGQHIGEMSFANHTSCRCMSKLD
no binding,no binding,no binding,34-7 (ligand) GQNHHEVVKSIDNEWRKTQCMPIETLVDIFQEFGVATNTFFKPSCVPLMRCGGCCNSEGLQCVPTEESNITMQIMRIKPHQGQHIGEMSFANHTSCRCMSKLD
no binding,no binding,no binding,23-13 (ligand) AHYNTEILKSIDNEWRKTQCMPREVCIDVGKEYPDEIEYIFKPPCVSVYRCGGCCNDEGLECVPTEESNITMQIMRITVPLSQGPKPVTISFANHTSCRCMSKLD
no binding,no binding,no binding,23-15 (ligand) AHYNTEILKSIDNEWRKTQCMPREVCIDVGKEYPDEIEYIFKPPCVSVYRCGGCCNSEGLQCVPTEESNITMQIMRITVPLSQGPKPVTISFANHTSCRCMSKLD
no binding,no binding,no binding,34-11 (ligand) GQNHHEVVKSIDNEWRKTQCMPIETLVDIFQEFGVATNTFFKPSCVPLMRCGGCCNSEGLQCVPTEESNITMQIMRITVPLSQGPKPVTISFLQHNKCECRPKKD
